Here are results for 37 sequences from patent US20170260531.

Data set [1] deals with T1, VEGF-121 (Homo sapiens), P15692-9.
T1 sequence: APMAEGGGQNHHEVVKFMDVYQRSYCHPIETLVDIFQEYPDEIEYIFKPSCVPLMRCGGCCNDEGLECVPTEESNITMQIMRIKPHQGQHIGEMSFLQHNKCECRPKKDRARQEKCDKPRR
Briefly: filter. The following applies: Nap-dU at all P positions; 2'-OMe at C6,G9,C12,G15,A17,G18,Nap22,G28,G29; 0.035 nM in Table 14.

In data set [2] the target is PDGF-BB (Homo sapiens) (UniProt P01127). In words: filter. The following applies: Bn-dU.
UniProt P01127, sequence (P01127 82-190): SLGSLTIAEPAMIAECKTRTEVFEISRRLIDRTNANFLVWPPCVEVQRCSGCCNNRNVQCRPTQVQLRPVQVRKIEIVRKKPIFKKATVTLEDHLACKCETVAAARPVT

As a reminder, the Kd is the free concentration of one partner at which half of the binding sites on the other are occupied at equilibrium, for simple one-to-one binding. The low end stands for a tighter complex, the high end for a looser complex. The sequence “CCGTTCAAGTGCTTGTAGGATTTAAATGG [4867-31_192]” registered a Kd in data set [1] of 0.023 nM.
As to “TACGACTACGTTACACGCGTTTATAGCG [4149-8_64]”, the Kd in data set [2] (C3 at position 1) was < 10 nM.
In the case of “TTACACTACGTTACACGCGTTTATAGCG [4149-8_68]”, the Kd in data set [2] (C3 at position 5) is < 10 nM.
Regarding “TTACGACACGTTACACGCGTTTATAGCG [4149-8_71]”, the Kd in data set [2] (C3 at position 8) is < 10 nM.
Consider “TTACGACTACGTTAACGCGTTTATAGCG [4149-8_78]”, for which, in data set [2] (C3 at position 15), the Kd was < 10 nM.
For “TTACGACTACGTTACACGCGTTTATAGC [4149-8_92]”, the Kd in data set [2] (C3 at position 29) is < 10 nM.
With “TTACGACTACGTTACACGCGTTTATAGCG [4149-8_44]”, in data set [2] (2'-OMe at position 3), the dissociation constant (Kd) is < 10 nM.
With “TTACGACTACGTTACACGCGTTTATAGCG [4149-8_45]”, in data set [2] (2'-OMe at position 4), the Kd is < 10 nM.
In the case of “TTACGACTACGTTACACGCGTTTATAGCG [4149-8_46]”, in data set [2] (2'-OMe at position 5), the Kd is < 10 nM.
With “TTACGACTACGTTACACGCGTTTATAGCG [4149-8_47]”, in data set [2] (2'-OMe at position 6), the dissociation constant (Kd) was < 10 nM.
“TTACGACTACGTTACACGCGTTTATAGCG [4149-8_48]”: in data set [2] (2'-OMe at position 7), the Kd was < 10 nM.
For the sequence “TTACGACTACGTTACACGCGTTTATAGCG [4149-8_49]”, in data set [2] (2'-OMe at position 9), the Kd was < 10 nM.
For “TTACGACTACGTTACACGCGTTTATAGCG [4149-8_50]”, the equilibrium dissociation constant (Kd) in data set [2] (2'-OMe at position 10) is < 10 nM.
Turning to “TTACGACTACGTTACACGCGTTTATAGCG [4149-8_51]”, the dissociation constant Kd in data set [2] (2'-OMe at position 11) was < 10 nM.
As for “TTACGACTACGTTACACGCGTTTATAGCG [4149-8_52]”, the Kd in data set [2] (2'-OMe at position 14) was < 10 nM.
On to “TTACGACTACGTTACACGCGTTTATAGCG [4149-8_53]”, for which the Kd in data set [2] (2'-OMe at position 15) is < 10 nM.
Turning to “TTACGACTACGTTACACGCGTTTATAGCG [4149-8_54]”, in data set [2] (2'-OMe at position 16), the equilibrium dissociation constant (Kd) is < 10 nM.
For “TTACGACTACGTTACACGCGTTTATAGCG [4149-8_55]”, the equilibrium dissociation constant (Kd) in data set [2] (2'-OMe at position 17) was < 10 nM.
Turning to “TTACGACTACGTTACACGCGTTTATAGCG [4149-8_56]”, in data set [2] (2'-OMe at position 18), the Kd is < 10 nM.
In the case of “TTACGACTACGTTACACGCGTTTATAGCG [4149-8_57]”, in data set [2] (2'-OMe at position 19), the equilibrium dissociation constant (Kd) is < 10 nM.
For the sequence “TTACGACTACGTTACACGCGTTTATAGCG [4149-8_58]”, the equilibrium dissociation constant (Kd) in data set [2] (2'-OMe at position 20) was < 10 nM.
Take “TTACGACTACGTTACACGCGTTTATAGCG [4149-8_59]”: the dissociation constant Kd in data set [2] (2'-OMe at position 24) is < 10 nM.
For the sequence “TTACGACTACGTTACACGCGTTTATAGCG [4149-8_60]”, the dissociation constant (Kd) in data set [2] (2'-OMe at position 26) was < 10 nM.
Turning to “TTACGACTACGTTACACGCGTTTATAGCG [4149-8_61]”, the Kd in data set [2] (2'-OMe at position 27) is < 10 nM.
Consider “TTACGACTACGTTACACGCGTTTATAGCG [4149-8_62]”, for which the Kd in data set [2] (2'-OMe at position 28) was < 10 nM.
With “TTACGACTACGTTACACGCGTTTATAGCG [4149-8_63]”, the Kd in data set [2] (2'-OMe at position 29) is < 10 nM.
Consider “TTACGACTACGTTACACGCGTTTATAGG [4149-8_91]”, for which, in data set [2] (C3 at position 28), the Kd was < 10 nM.
As to “TTACGACTACGTTACACGCGTTTTAGCG [4149-8_87]”, in data set [2] (C3 at position 24), the Kd was < 10 nM.
For the sequence “TTACGACTACGTTACAGCGTTTATAGCG [4149-8_80]”, the Kd in data set [2] (C3 at position 17) is < 10 nM.
“TTACGACTACGTTACCGCGTTTATAGCG [4149-8_79]”: the Kd in data set [2] (C3 at position 16) was < 10 nM.
Take “TTACGACTAGTTACACGCGTTTATAGCG [4149-8_73]”: in data set [2] (C3 at position 10), the dissociation constant (Kd) was < 10 nM.
“TTACGACTCGTTACACGCGTTTATAGCG [4149-8_72]”: in data set [2] (C3 at position 9), the equilibrium dissociation constant (Kd) was < 10 nM.
For the sequence “TTACGATACGTTACACGCGTTTATAGCG [4149-8_70]”, the equilibrium dissociation constant (Kd) in data set [2] (C3 at position 7) is < 10 nM.
With “TTACGCTACGTTACACGCGTTTATAGCG [4149-8_69]”, the Kd in data set [2] (C3 at position 6) is < 10 nM.
For the sequence TTACGTTACCGCGTTTATAGCG [4149-8_426], the Kd in data set [2] (MBn-dU, Heg, C3, 2'-OMe) is > 10 nM.
As to TTACGTTACCGTTTATAG [4149-8_405], in data set [2] (Heg, C3), the Kd was > 10 nM.
For “TTAGACTACGTTACACGCGTTTATAGCG [4149-8_67]”, in data set [2] (C3 at position 4), the Kd was < 10 nM.
